Substitutions are numbered along the chain they refer to.
T1: Recombinant Human IL-17 (human, UniProt Q16552 20-155, limits assumed)
T1 sequence (looked up): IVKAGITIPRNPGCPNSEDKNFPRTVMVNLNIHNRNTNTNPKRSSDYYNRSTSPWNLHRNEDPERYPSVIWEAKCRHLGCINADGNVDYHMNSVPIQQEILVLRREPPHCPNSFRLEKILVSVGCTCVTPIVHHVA

B1: DVD2155 (bispecific antibody)
VH: EVQLVQSGAEVKKPGSSVKVSCKASGGSFGGYGIGWVRQAPGQGLEWMGGITPFFGFADYAQKFQGRVTITADESTTTAYMELSGLTSDDTAVYYCARDPNEFWNGYYSTHDFDSWGQGTTVTVSSASTKGPEVTLRESGPGLVKPTQTLTLTCTLYGFSLSTSDMGVDWIRQPPGKGLEWLAHIWWDDVKRYNPALKSRLTISKDTSKNQVVLKLTSVDPVDTATYYCARTVSSGYIYYAMDYWGQGTLVTVSS
VL: EIVLTQSPDFQSVTPKEKVTITCRASQDIGSELHWYQQKPDQPPKLLIKYASHSTSGVPSRFSGSGSGTDFTLTINGLEAEDAGTYYCHQTDSLPYTFGPGTKVDIKRTVAAPDIQMTQSPSSLSASVGDRVTISCRASQDIRNYLNWYQQKPGKAPKLLIFYTSKLHSGVPSRFSGSGSGTDYTLTISSLQPEDIATYYCQQGLTPPLTFGGGTKVEIKR
notes: DVD-Ig; also called DVD2155H; DVD2155L
B2: DVD2157 (bispecific antibody)
VH: B1 VH
VL: EIVLTQSPDFQSVTPKEKVTITCRASQDIGSELHWYQQKPDQPPKLLIKYASHSTSGVPSRFSGSGSGTDFTLTINGLEAEDAGTYYCHQTDSLPYTFGPGTKVDIKRTVAAPSVFIFPPDIQMTQSPSSLSASVGDRVTISCRASQDIRNYLNWYQQKPGKAPKLLIFYTSKLHSGVPSRFSGSGSGTDYTLTISSLQPEDIATYYCQQGLTPPLTFGGGTKVEIKR
notes: DVD-Ig; also called DVD2157H; DVD2157L
B3: DVD2158 (bispecific antibody)
VH: EVTLRESGPGLVKPTQTLTLTCTLYGFSLSTSDMGVDWIRQPPGKGLEWLAHIWWDDVKRYNPALKSRLTISKDTSKNQVVLKLTSVDPVDTATYYCARTVSSGYIYYAMDYWGQGTLVTVSSASTKGPSVFPLAPEVQLVQSGAEVKKPGSSVKVSCKASGGSFGGYGIGWVRQAPGQGLEWMGGITPFFGFADYAQKFQGRVTITADESTTTAYMELSGLTSDDTAVYYCARDPNEFWNGYYSTHDFDSWGQGTTVTVSS
VL: DIQMTQSPSSLSASVGDRVTISCRASQDIRNYLNWYQQKPGKAPKLLIFYTSKLHSGVPSRFSGSGSGTDYTLTISSLQPEDIATYYCQQGLTPPLTFGGGTKVEIKRTVAAPEIVLTQSPDFQSVTPKEKVTITCRASQDIGSELHWYQQKPDQPPKLLIKYASHSTSGVPSRFSGSGSGTDFTLTINGLEAEDAGTYYCHQTDSLPYTFGPGTKVDIKR
notes: DVD-Ig; also called DVD2158H; DVD2158L
B4: DVD2159 (bispecific antibody)
VH: EVQLVQSGAEVKKPGSSVKVSCKASGGSFGGYGIGWVRQAPGQGLEWMGGITPFFGFADYAQKFQGRVTITADESTTTAYMELSGLTSDDTAVYYCARDPNEFWNGYYSTHDFDSWGQGTTVTVSSASTKGPSVFPLAPEVTLRESGPGLVKPTQTLTLTCTLYGFSLSTSDMGVDWIRQPPGKGLEWLAHIWWDDVKRYNPALKSRLTISKDTSKNQVVLKLTSVDPVDTATYYCARTVSSGYIYYAMDYWGQGTLVTVSS
VL: B1 VL
notes: DVD-Ig; also called DVD2159H; DVD2159L
B5: DVD2161 (bispecific antibody)
VH: EVQLVQSGAEVKKPGESVKISCKASGGSFRSYGISWVRQAPGQGLEWMGGITHFFGITDYAQKFQGRVTITADESTTTAYMELSGLTSDDTAVYYCAREPNDFWNGYYDTHDFDSWGQGTTVTVSSASTKGPEVTLRESGPGLVKPTQTLTLTCTLYGFSLSTSDMGVDWIRQPPGKGLEWLAHIWWDDVKRYNPALKSRLTISKDTSKNQVVLKLTSVDPVDTATYYCARTVSSGYIYYAMDYWGQGTLVTVSS
VL: B1 VL with D28N, P43S, T55I, G84A, T91S, S93T, Y96H, P100Q
notes: DVD-Ig; also called DVD2161H; DVD2161L
B6: DVD2164 (bispecific antibody)
VH: EVTLRESGPGLVKPTQTLTLTCTLYGFSLSTSDMGVDWIRQPPGKGLEWLAHIWWDDVKRYNPALKSRLTISKDTSKNQVVLKLTSVDPVDTATYYCARTVSSGYIYYAMDYWGQGTLVTVSSASTKGPSVFPLAPEVQLVQSGAEVKKPGESVKISCKASGGSFRSYGISWVRQAPGQGLEWMGGITHFFGITDYAQKFQGRVTITADESTTTAYMELSGLTSDDTAVYYCAREPNDFWNGYYDTHDFDSWGQGTTVTVSS
VL: B3 VL with D141N, P156S, T168I, G197A, T204S, S206T, Y209H, P213Q
notes: DVD-Ig; also called DVD2164H; DVD2164L
B7: DVD2165 (bispecific antibody)
VH: EVQLVQSGAEVKKPGESVKISCKASGGSFRSYGISWVRQAPGQGLEWMGGITHFFGITDYAQKFQGRVTITADESTTTAYMELSGLTSDDTAVYYCAREPNDFWNGYYDTHDFDSWGQGTTVTVSSASTKGPSVFPLAPEVTLRESGPGLVKPTQTLTLTCTLYGFSLSTSDMGVDWIRQPPGKGLEWLAHIWWDDVKRYNPALKSRLTISKDTSKNQVVLKLTSVDPVDTATYYCARTVSSGYIYYAMDYWGQGTLVTVSS
VL: B1 VL with D28N, P43S, T55I, G84A, T91S, S93T, Y96H, P100Q
notes: DVD-Ig; also called DVD2165H; DVD2165L
B8: DVD2166 (bispecific antibody)
VH: EVQLVQSGAEVKKPGASVKVSCKASGYTFTTYGVSWVRQAPGQGLEWMGEIYPGNYNTYYNEKFRGRVTMTTDTSTSTAYMELRSLRSDDTAVYYCARWRTSYFSDYGYFDYWGQGTTVTVSSASTKGPEVQLVQSGAEVKKPGSSVKVSCKASGYTFTDYEIHWVRQAPGQGLEWMGVNDPESGGTFYNQKFDGRVTLTADESTSTAYMELSSLRSEDTAVYYCTRYSKWDSFDGMDYWGQGTTVTVSS
VL: DVVMTQSPLSLPVTLGQPASISCRSSQSLVHSHGNTYLHWYQQRPGQSPRLLIYTVSNRFSGVPDRFSGSGSGTDFTLKISRVEAEDVGVYYCSQSTHVPYTFGGGTKVEIKRTVAAPDIQMTQSPSSLSASVGDRVTITCRASSGIISYIDWFQQKPGKAPKRLIYATFDLASGVPSRFSGSGSGTDYTLTISSLQPEDFATYYCRQVGSYPETFGQGTKLEIKR
notes: DVD-Ig; also called DVD2166H; DVD2166L

How the values were obtained:
Recombinant Human IL-17 [1] = target: T1, Recombinant Human IL-17; experiment: cell-based or functional assay
Recombinant Human IL-13 [2] = target: T2, Recombinant Human IL-13 (human, UniProt P35225 35-146, limits assumed); experiment: SPR (Biacore)
T2 construct: bought reagent
Protocol: (§1) The BIACORE assay (Biacore, Inc, Piscataway, N.J.) determined the affinity of antibodies or DVD-Ig with kinetic measurements of on-rate and off-rate constants. Binding of antibodies or DVD-Ig proteins to a target antigen (for example, a purified recombinant target antigen) was determined by surface plasmon resonance-based measurements with a Biacore®1000 or 3000 instrument (Biacore® AB, Uppsala, Sweden) using running HBS-EP (10 mM HEPES [pH 7.4], 150 mM NaCl, 3 mM EDTA, and 0.005% surfactant P20) at 25° C. All chemicals were obtained from Biacore® AB (Uppsala, Sweden) or otherwise from a different source as described in the text. For example, approximately 5000 RU of goat anti-mouse IgG, (Fcγ), fragment specific polyclonal antibody (Pierce Biotechnology Inc, Rockford, Ill.) diluted in 10 mM sodium acetate (pH 4.5) was directly immobilized across a CM5 research grade biosensor chip using a standard amine coupling kit according to manufacturer's instructions and procedures at 25 μg/ml. Unreacted moieties on the biosensor surface were blocked with ethanolamine. Modified carboxymethyl dextran surface in flowcell 2 and 4 was used as a reaction surface. Unmodified carboxymethyl dextran without goat anti-mouse IgG in flow cell 1 and 3 was used as the reference surface. For kinetic analysis, rate equations derived from the 1:1 Langmuir binding model were fitted simultaneously to association and dissociation phases of all eight injections (using global fit analysis) with the use of Biaevaluation 4.0.1 software. Purified antibodies or DVD-Ig proteins were diluted in HEPES-buffered saline for capture across goat anti-mouse IgG specific reaction surfaces. Antibodies or DVD-Ig proteins to be captured as a ligand (25 μg/ml) were injected over reaction matrices at a flow rate of 5 μl/minute. The association and dissociation rate constants, kₒₙ (M⁻¹s⁻¹) and koff (s⁻¹) were determined under a continuous flow rate of 25 μl/minute. Rate constants were derived by making kinetic binding measurements at different antigen concentrations ranging from 10-200 nM. The equilibrium dissociation constant (M) of the reaction between antibodies or DVD-Ig proteins and the target antigen was then calculated from the kinetic rate constants by the following formula: KD=koff/kₒₙ. Binding was recorded as a function of time and kinetic rate constants were calculated.

Recombinant Human IL-17 [3] = target: T1, Recombinant Human IL-17; experiment: SPR (Biacore)
Protocol: as §1

Recombinant Human IL-13 [4] = target: T2, Recombinant Human IL-13; experiment: cell-based or functional assay

T2 sequence (P35225 35-146 limits assumed): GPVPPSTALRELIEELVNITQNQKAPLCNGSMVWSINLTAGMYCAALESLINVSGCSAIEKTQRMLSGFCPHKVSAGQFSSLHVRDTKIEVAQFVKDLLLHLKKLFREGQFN

Row | Binder | N-Terminal VD IL17 Neutralization Assay IC50 (Recombinant Human IL-17 [1]) [pM] | Kd (Recombinant Human IL-13 [2]) [pM] | koff (Recombinant Human IL-13 [2]) [s⁻¹] | kon (Recombinant Human IL-13 [2]) [M⁻¹ s⁻¹] | Kd (Recombinant Human IL-17 [3]) [pM] | koff (Recombinant Human IL-17 [3]) [s⁻¹] | kon (Recombinant Human IL-17 [3]) [M⁻¹ s⁻¹] | C-Terminal VD IL13 Neutralization Assay IC50 (Recombinant Human IL-13 [4]) [pM] | C-Terminal VD IL17 Neutralization Assay IC50 (Recombinant Human IL-17 [1]) [pM] | N-Terminal VD IL13 Neutralization Assay IC50 (Recombinant Human IL-13 [4]) [pM]
1 | B1 | 7.8 | 160 | 3.8e-05 | 230000 | 2.6 | 6.9e-06 | 2.7e+06 | 1180 |  | 
2 | B2 | 6.6 | 210 | 6.9e-05 | 330000 | 18 | 2.6e-05 | 1.5e+06 | 244 |  | 
3 | B3 |  | 86 | 0.00014 | 1.6e+06 | < 50 | < 1e-06 | 20000 |  | 99.8 | 131
4 | B4 | 8.1 | 200 | 5.3e-05 | 260000 | 4.9 | 1.2e-05 | 2.5e+06 | 876 |  | 
5 | B5 | 14.4 | 380 | 4.1e-05 | 110000 | 27 | 4.5e-05 | 1.6e+06 | 812 |  | 
6 | B6 |  | 110 | 0.00017 | 1.5e+06 | 1700 | 3.1e-05 | 18000 |  | 135 | 146
7 | B7 | 13.3 | 220 | 5.7e-05 | 260000 | 14 | 3.2e-05 | 2.3e+06 | 355 |  | 
8 | B8 |  | 34 | 2.6e-05 | 760000 | 75 | 9.4e-06 | 130000 |  | 16.4 | 89
